Positions count from the first letter of the chain named. Values belong to the binder of their own block, whether it stands above or below them.
How the values were obtained:
[1] = molecular target: T1, human stem cell factor isoform SCF248 (human, UniProt P21583 26-273); experiment: binding score, flow cytometry on S1/S14 hSCF248 cells
T1 construct: also called hSCF248; soluble SCF

[2] = molecular target: T2, human stem cell factor isoform SCF220 (human, UniProt P21583-2 26-245); experiment: flow cytometry, directly labelled antibody on S1/S14 hSCF220 cells
T2 construct: whole, on cells; also called hSCF220; membrane SCF
Method: Binding of the labeled antibody to the cells was assessed by flow cytometry.

[3] = molecular target: T2, human stem cell factor isoform SCF220; experiment: flow cytometry on S1/S14 hSCF220 cells
[4] = molecular target: T1, human stem cell factor isoform SCF248; experiment: flow cytometry on S1/S14 hSCF248 cells; printed as BC50 (50% maximal binding)
[5] = molecular target: T2, human stem cell factor isoform SCF220; experiment: flow cytometry on the SCF220-expressing cell line

T1 sequence (P21583 26-273 limits assumed): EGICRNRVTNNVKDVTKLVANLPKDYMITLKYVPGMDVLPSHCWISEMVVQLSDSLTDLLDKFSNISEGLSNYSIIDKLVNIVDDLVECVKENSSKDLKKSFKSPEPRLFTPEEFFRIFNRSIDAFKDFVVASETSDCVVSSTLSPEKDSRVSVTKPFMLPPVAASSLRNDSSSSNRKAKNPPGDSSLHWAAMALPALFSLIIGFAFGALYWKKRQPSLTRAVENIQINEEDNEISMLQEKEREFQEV
T2 sequence (P21583 other isoform, or with tags, fused parts or gaps): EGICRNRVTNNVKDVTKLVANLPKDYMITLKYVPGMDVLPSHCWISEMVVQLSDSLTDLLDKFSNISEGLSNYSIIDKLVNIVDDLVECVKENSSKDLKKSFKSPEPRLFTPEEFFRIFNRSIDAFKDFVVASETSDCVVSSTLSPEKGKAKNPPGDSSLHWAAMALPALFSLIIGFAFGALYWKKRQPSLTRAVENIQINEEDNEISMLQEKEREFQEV

B1: 5H10 VH2/VK2 (antibody, V domains shown)
VH: QVQLVQSGAEVKKPGSSVKISCKSSGYAFSSYWMNWVKQRPGQGLEWIGQIYPGDGDTHYNGKFKGKATLTADKSTSTAYMELSSLRSEDTAVYFCSSSNWVGSYWGQGTLVTVSS
VL: DVVMTQSPLSLPVTLGQPASISCKSSQSLLESDGKTYLNWLQQRPGQSPRRLIYLVSRLDSGVPDRFTGSGSGTDFTLKISRVEAEDVGVYYCWQGTHLPQTFGGGTKVEIK
notes: Humanized; Only variable regions are tied to the name
binding result [1]: binds

B2: murine 5H10 antibody (antibody, V domains shown)
VH: B1 VH with V5Q, V11L, K12V, K13R, T76S, E82Q, S85R, R87T, T91S, S116A
VL: not shown
notes: Murine monoclonal from a hybridoma, kappa light chain; also called OpSCF; murine parent 5H10
binding result [2]: no binding

B3: 5H10 VH3/VK3 (antibody, V domains shown)
VH: B1 VH with I20V, K38R
VL: B1 VL with T68S
notes: as for B1
binding result [3]: no binding
EC50 [4]: 0.9 µg/mL

B4: 5H10 VH0/VK0 (chimeric 5H10) (antibody, V domains shown)
VH: B1 VH with V5Q, V11L, K12V, K13R, T76S, E82Q, S85R, R87T, T91S, S116A
VL: not shown
notes: also called chimeric antibody 5H10
binding result [3]: no binding

B5: 5H10 VH5/VK2 (antibody, V domains shown)
VH: B1 VH with I20V, K38R, K65Q, K67R, A68V, L70I, F95Y
VL: B1 VL
notes: as for B1
binding result [3]: no binding

B6: 5H10 VH1/VK3 (antibody, V domains shown)
VH: B1 VH with V11L, R87T, T91S
VL: B1 VL with T68S
notes: as for B1
binding result [5]: no binding

B7: 5H10 VH1/VK1 (antibody, V domains shown)
VH: B1 VH with V11L, R87T, T91S
VL: B1 VL with S10T, P12S
notes: as for B1
binding result [1]: binds

B12: 5H10 VH1/VK2 (antibody, V domains shown)
VH: B1 VH with V11L, R87T, T91S
VL: B1 VL
notes: as for B1
binding result [1]: binds

Now from value to binder:

binding result [3]: no binding
B8: 5H10 VH5/VK3 (antibody, V domains shown)
VH: B1 VH with I20V, K38R, K65Q, K67R, A68V, L70I, F95Y
VL: B1 VL with T68S
notes: as for B1

binding result [5]: no binding
B9: 5H10 VH2/VK3 (antibody, V domains shown)
VH: B1 VH
VL: B1 VL with T68S
notes: as for B1

binding result [3]: no binding
B10: 5H10 VH3/VK2 (antibody, V domains shown)
VH: B1 VH with I20V, K38R
VL: B1 VL
notes: as for B1

binding result [3]: no binding
B11: 5H10 VH4/VK2 (antibody, V domains shown)
VH: B1 VH with I20V, K38R, K67R, A68V, L70I
VL: B1 VL
notes: as for B1

binding result [3]: no binding
B13: 5H10 VH4/VK3 (antibody, V domains shown)
VH: B1 VH with I20V, K38R, K67R, A68V, L70I
VL: B1 VL with T68S
notes: as for B1
